Tests used:
[1] = biological target: T1, His-tagged huCB1-ND (human CB1 in nanodisc) (human); experiment: flow cytometry, yeast-displayed IgG, huCB1-ND over empty-ND
T1 construct: CB1 construct of Cell 167(3) (2016) 750-762 expressed in Sf9 cells; POPC:MSP1D1:CB1 480:8:1; also called CB1-nanodisc; huCB1-Nanodisc; not shown: histidine purification tag

[2] = biological target: T2, GFP-fused huCB1-SMALP (human CB1 in styrene maleic acid lipoparticles) (human, UniProt P21554 1-472); experiment: flow cytometry, yeast-displayed IgG, GFP MFI
T2 construct: Prepared as in Luna V. et al. 2018; also called huCB1-GFP-SMALP; wtCB1-SMALP; not shown: GFP fusion
T2 sequence (P21554 whole entry, the tested form may be a part): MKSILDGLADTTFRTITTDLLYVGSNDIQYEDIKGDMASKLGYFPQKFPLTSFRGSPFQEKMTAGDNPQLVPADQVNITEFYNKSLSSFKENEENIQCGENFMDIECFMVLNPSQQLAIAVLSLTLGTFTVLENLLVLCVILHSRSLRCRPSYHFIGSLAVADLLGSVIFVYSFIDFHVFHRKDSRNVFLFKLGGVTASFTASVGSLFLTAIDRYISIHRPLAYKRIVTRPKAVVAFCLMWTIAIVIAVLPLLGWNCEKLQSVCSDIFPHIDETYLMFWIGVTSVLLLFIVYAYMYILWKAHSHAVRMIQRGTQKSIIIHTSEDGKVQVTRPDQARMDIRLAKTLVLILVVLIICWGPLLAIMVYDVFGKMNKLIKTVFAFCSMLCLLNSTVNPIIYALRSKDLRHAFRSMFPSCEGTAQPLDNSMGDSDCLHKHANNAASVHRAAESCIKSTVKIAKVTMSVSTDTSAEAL

[3] = biological target: T1, His-tagged huCB1-ND (human CB1 in …); experiment: flow cytometry, yeast-displayed IgG, binding/display ratio

T1 sequence (P21554 99-414): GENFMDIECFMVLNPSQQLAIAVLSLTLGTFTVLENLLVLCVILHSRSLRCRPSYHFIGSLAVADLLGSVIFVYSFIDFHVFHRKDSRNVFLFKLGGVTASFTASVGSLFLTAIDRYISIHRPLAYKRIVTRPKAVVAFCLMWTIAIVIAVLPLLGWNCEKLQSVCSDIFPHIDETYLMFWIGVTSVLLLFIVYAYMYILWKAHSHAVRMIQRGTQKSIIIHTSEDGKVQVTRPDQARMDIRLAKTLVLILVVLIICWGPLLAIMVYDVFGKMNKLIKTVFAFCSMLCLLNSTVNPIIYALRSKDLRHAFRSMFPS

Row | Binder | specific huCB1 binding (CB1 ND/Empty ND ratio) [1] | 100 nM huCB1-SMALP binding (normalized to 10D10) [2] | relative binding to 0.2 nM huCB1-ND (relative to 10D10N35Y) [3]
1 | LIBC523603-1 (antibody, V domains shown) VH: QVQLQESGPGLVKPSQTLSLTCTVSGGSIRRGGDYWAWIRQHPGKGLEWIGHVYQSGQTAYNPNFENRATISVNTYKNQFSLKLSSVTAADTAVYYCARDYDAVSGYSYYYYGMDVWGQGTTVTVSS VL: DIVMTQSPLSLPVTPGEPASISCRSSQSLLSSYGNNYVDWYLQKPGQSPQLLIYQGSNRASGVPDRFSGSGSGTDFTLKISRVEAEDVGVYYCRQAVGLPRTFGQGTKVEIKR | 19.4 ratio | 4.05 fold | 6.05 fold
2 | LIBC523748-1 (antibody, V domains shown) VH: QVQLQESGPGLVKPSQTLSLTCTVSGGSIRRGGDYWSWIRQHPGKGLEWIGHVYYTGSTKYNPSFEGRATISVKTYKNQFSLKLSSVTAADTAVYYCARDYDILTGYSYYYYGMDVWGQGTTVTVSS VL: not shown | 5.33 ratio | 6.12 fold | 4.41 fold
3 | LIBC523813-1 (antibody, V domains shown, also called LIBC523813-1 + VK2 germline fix) VH: QVQLQESGPGLVKPSQTLSLTCTVSGGSIRRGGDYWSWIRQHPGKGLEWIGHVYYTGQTAYNPKFKDRATISVKTYKNQFSLKLSSVTAADTAVYYCARDYDILTGYSYYYYGMDVWGQGTTVTVSS VL: DIVMTQSPLSLPVTPGEPASISCRSSQSLLSSSGANYVDWYLQKPGQSPQLLIYLGSNRASGVPDRFSGSGSGTDFTLKISRVEAEDVGVYYCMQARGIPRTFGQGTKVEIKR | 5.79 ratio | 6.32 fold | 3.38 fold
4 | LIBC523862-1 (antibody, V domains shown) VH: QVQLQESGPGLVKPSQTLSLTCTVSGGSIRRGGDYWSWIRQHPGKGLEWIGHIYQTGSTAYNPSLKGRATISVNTYKNQFSLKLSSVTAADTAVYYCARDYDILTGYSYYYYGMDVWGQGTTVTVSS VL: DIVMTQSPLSLPVTPGEPASISCRSSQSLLHSTGANYVDWYLQKPGQSPQLLIYLGSNRASGVPDRFSGSGSGTDFTLKISRVEAEDVGVYYCRQAIALPRTFGQGTKVEIKR | 13.6 ratio | 3.97 fold | 5.07 fold
5 | LIBC523868-1 (antibody, V domains shown) VH: QVQLQESGPGLVKPSQTLSLTCTVSGGSIRRGGDYWSWIRQHPGKGLEWIGHVYYEGSTAYNPSFEDRATISVNTYKNQFSLKLSSVTAADTAVYYCARDYDILTGYSYYYYGMDVWGQGTTVTVSS VL: DIVMTQSPLSLPVTPGEPASISCRSSQSLLTSYGINYVDWYLQKPGQSPQLLIYLGSNRASGVPDRFSGSGSGTDFTLKISRVEAEDVGVYYCMQARQIPRTFGQGTKVEIKR | 13.3 ratio | 4.21 fold | 6.28 fold
6 | LIBC523760-1 (antibody, V domains shown) VH: QVQLQESGPGLVKPSQTLSLTCTVSGGSIRRGGDYWSWIRQHPGKGLEWIGHVYQTGSTKYNPKFKGRATISVNTYKNQFSLKLSSVTAADTAVYYCARDYDILTGYSYYYYGMDVWGQGTTVTVSS VL: DIVMTQSPLSLPVTPGEPASISCRSSQSLLTSSGANYVDWYLQKPGQSPQLLIYLGSNRASGVPDRFSGSGSGTDFTLKISRVEAEDVGVYYCRQAVGTPRTFGQGTKVEIKR | 7.21 ratio | 5.7 fold | 4.19 fold
7 | LIBC523815-1 (antibody, V domains shown) VH: QVQLQESGPGLVKPSQTLSLTCTVSGGSIRRGGDYWSWIRQHPGKGLEWIGHIYQSGQTKYNPSLKDRATISVNTYKNQFSLKLSSVTAADTAVYYCARDYDILTGYSYYYYGMDVWGQGTTVTVSS VL: DIVMTQSPLSLPVTPGEPASISCRSSQSLLTSSGANYVDWYLQKPGQSPQLLIYLGSNRASGVPDRFSGSGSGTDFTLKISRVEAEDVGVYYCRQAREQPRTFGQGTKVEIKR | 14.8 ratio | 4.55 fold | 6.15 fold

Reference: patent US20250277029A1 (Amgen, published 2025)
